The test system of assay [1] is MRL/MpJ-Fas^lpr mice. Briefly: Prevention of spontaneous SLE in MRL/MpJ-Fas^lpr mice. It counts as in vivo. The following applies: for heavy proteinuria, ^33 g/l (+++) at week 17 of age, mice affected/treated: peptides 100 μg i.p. in PBS at weeks 12, 18, 24, TCV 2×10^7 cells i.p. at 12 weeks; for death by week 33 of age, percent of mice / heavy proteinuria, ^33 g/l (+++) at week 17 of age, percent of mice: same treatments. The text has this:
Proteinuria was detected with Albustix strips (Bayer, Slough, UK). Leukocytes were counted from heparinized blood following 10-fold dilution in 1% acetic acid.
Thus, modulation of the p53 immune network should affect the course of SLE. A preliminary experiment was designed to see whether the spontaneous SLE development in MRL/MpJ-Fas^lpr mice might be influenced by administering to these mice peptides involved in the p53 network: the CDR peptides of the light and the heavy chain of PAb-421 depicted in FIG. 10 (administered as a mixture), or peptide 364-383 (residues 364-383 of SEQ ID NO:1) of the carboxy terminal domain of p53. The mice were intraperitoneally injected with 100 μg of the p53 peptide epitope of PAb-421 in PBS, or with 100 μg of peptides derived from variable region of PAb-421 in PBS at weeks 12,18, and 24 of age and followed for the development of SLE symptoms. […] Treatment with the peptides derived from the variable region of PAb-421 protected all five mice from development of proteinuria (0%; Table 2: 421: CDR). At week 33 of age, 5 of 6 non-treated mice (83%, cf. Table 2) were dead, whereas none of the mice treated with either peptide had died (0% each; see Table 2).
Also carried out was T cell vaccination against immunity to PAb-421. MRL/MpJ mice were immunized intradermally with 30 μg PAb-421 in complete Freund's adjuvant, followed by a boost in incomplete Freund's adjuvant. Cells derived from the draining lymph nodes, which were enriched for T cells reactive to PAb-421 and the p53 epitope peptide of PAb-421, were activated with 2 μg per ml Concanavalin A. Twelve week old MRL/MpJ-Fas^lpr mice were then injected intraperitoneally with 2×10^7 freshly activated and gamma-irradiated (2500 rad) cells per mouse. At 17 weeks of age, only 1 out of 8 treated mice […] developed severe proteinuria, while, in contrast, 6 out of 8 untreated control mice (75%) developed severe proteinuria. 421-TCV vs. not treated.

For assay [2], the system named is PAb-421. Briefly: Reactivity of monoclonal antibodies IDI-1 and IDI-2 to PAb-421. Format: binding, mouse. The procedure:
(§1) FIG. 7 is a graph showing the reactivities of monoclonal antibodies IDI-1 and IDI-2, which were selected for idiotypic binding to PAb-421. […] The binding to single-stranded or double-stranded calf thymus DNA was assessed by ELISA after the DNA had been gamma-irradiated with the indicated dosages (0-10,000 rad).
To generate such antibodies, BALB/c mice were immunized with PAb-421 and selected hybridomas producing anti-idiotypic antibodies that bound PAb-421 and could also bind DNA were isolated.
(§2) Two monoclonal antibodies, IDI-1 and IDI-2, could be isolated which had been selected for idiotypic binding to PAb-421 and their reactivities were determined. […] Thus, these two novel monoclonal antibodies of the present invention appear to mimic the DNA-binding specificity of p53. Thus, such antibodies could serve as models of the critical regulatory conformation of the carboxy-terminal domain of p53.

The subject of assay [3] is mouse antibodies other than PAb-421, like R73. Briefly: Reactivity of IDI-1 and IDI-2 to control mouse antibodies. Format: binding. To be noted: control mAb. The procedure: as §1, §2
Assay [4] relates to single-stranded homooligomers (20-mers) of dG, dA, dC and dT. In words: Band-shift assay with single-stranded homooligomers. The following applies: preliminary studies. Format: binding. The text has this: Preliminary studies were done to define the oligonucleotide motifs recognized by IDI-1 and IDI-2 and to test whether p53 itself might bind the same oligonucleotide. Single-stranded homooligomers (20-mers) of dG, dA, dC and dT were used. […] Thus, dG is an important ligand for the anti-DNA monoclonal antibodies and for p53 itself. This further supports the presumptions that IDI-1 and IDI-2 mimic the carboxy terminal conformation of p53. In fact, the binding of the antibody to oligo dG is evidence that the antibody actually mimics the C-terminal domain of p53.

For assay [5], the system named is single-stranded or double-stranded calf thymus DNA. Briefly: ELISA binding of IDI-1 and IDI-2 to calf thymus DNA, with or without gamma-irradiation. To be noted: for change of binding to single-stranded DNA after gamma-irradiation of the DNA: 0-10,000 rad, depending on the radiation dose; for reactivity to DNA (FIG. 7): single-stranded or double-stranded DNA. As for the experimental part:
as §1
For anti-DNA ELISA, a secondary antibody conjugated to horseradish peroxidase, and as substrate 1 mg/ml ABTS in 0.2 M citric acid, 0.2 M Na2HP04, and 3% H202 (all from Sigma) was used. The test antigens used were (Fab) 2 fragments of Ab2 anti-PAb-421, which were prepared as described (Harlow et al, 1988), recombinant p53, the p53 peptide epitope of PAb-421, histones or, after pre-coating with methylated BSA, calf thymus DNA (all from Sigma). All antibody titers are shown as the O. D. produced by the test sera at a dilution of 1:100. Dots represent individual sera, bars represent the median of each group.
as §2
(ELISA stands for enzyme-linked immunosorbent assay.)

As to “421-Epitope: p53 peptide SYLKTKKGQSTSRHKKTMVK, residues 364-383 of SEQ ID NO:1, carboxy terminal domain of p53 (listed as Mus sp.)”, in assay [1] (peptides 100 μg i.p. in PBS at weeks 12, 18, 24), the “death by week 33 of age, mice dead/treated” value is listed as 0/6. In assay [1], the “heavy proteinuria, ^33 g/l (+++) at week 17 of age, mice affected/treated” value is 2/5; the “death by week 33 of age, percent of mice” value is “(0%)”; the “heavy proteinuria, ^33 g/l (+++) at week 17 of age, percent of mice” value is recorded as “(33%)”. For the same molecule, in assay [1] (listed as 421-epitope), the “heavy proteinuria, ^33 g/l (+++) at week 17 of age, mice affected/treated” value is 2 out of 5; the “death by week 33 of age, percent of mice” value was found to be 0%; the “heavy proteinuria, ^33 g/l (+++) at week 17 of age, percent of mice” value worked out at 40%.

B1: IDI-2: Ab2 monoclonal antibody anti-idiotypic to PAb-421 that binds DNA; VH and VL SEQ ID NOs:6 and 7 (antibody, listed as Mus sp., V domains shown)
VH: QVQLQQSGPELVKPGASMKISCKASGYSFTGYTINWVKQSHGKNLEWIGLINPYNGGTCYNPKFKGKATLTVDKSSSTAYMELLSLTSEDSAVYYCARRVWLRRDGFYYAMDYWGQGTSVTVSSAKTTPP
VL: AVSLGQRATISCQASESVSFAGTSLMHWYQQKPGQPPKLLIYRASKLESGVPARFSGSGSESDFTLTIDPVEEDDAAMYYCMQSMEDPYTFGGGTKLEIKRADAAPTVSIFPPS
modifications: BINDING (26)..(35) Complementary Determining Region; BINDING (13)..(27) Complementary Determining Region
For the molecule B1, the “reactivity to PAb-421 (FIG. 7)” value in assay [2] is “specific reactivity”. Besides, the “reactivity to mouse antibodies other than PAb-421” value in assay [3] is reported as “No reactivity”. Also, in assay [4], the “binding to homooligomers in band-shift assay” value (from here on “binding … in band-shift assay”) was “bound to the dG oligomer better than they did the others”. Also, in assay [5], the “change of binding to single-stranded DNA after gamma-irradiation of the DNA” value was “somewhat less” and the “reactivity to DNA (FIG. 7)” value is “specific reactivity”.

B2: p53: recombinant mouse p53 protein expressed in E. coli (protein, UniProt P02340 1-390, looked up)
Cellular tumor antigen p53: MTAMEESQSDISLELPLSQETFSGLWKLLPPEDILPSPHCMDDLLLPQDVEEFFEGPSEALRVSGAPAAQDPVTETPGPVAPAPATPWPLSSFVPSQKTYQGNYGFHLGFLQSGTAKSVMCTYSPPLNKLFCQLAKTCPVQLWVSATPPAGSRVRAMAIYKKSQHMTEVVRRCPHHERCSDGDGLAPPQHLIRVEGNLYPEYLEDRQTFRHSVVVPYEPPEAGSEYTTIHYKYMCNSSCMGGMNRRPILTIITLEDSSGNLLGRDSFEVRVCACPGRDRRTEEENFRKKEVLCPELPPGSAKRALPTCTSASPPQKKKPLDGEYFTLKIRGRKRFEMFRELNEALELKDAHATEESGDSRAHSSYLKTKKGQSTSRHKKTMVKKVGPDSD
Regarding B2, in assay [4], the “binding … in band-shift assay” value is “bound to the dG oligomer better than they did the others”.

B3: IDI-1: Ab2 monoclonal antibody anti-idiotypic to PAb-421 that binds DNA; VH and VL SEQ ID NOs:4 and 5 (antibody, listed as Mus sp., V domains shown)
VH: IPQVQLQQSGAELVRPGASVKLSCKASGYIFTSYWINWVRQRPGQGLEWIGNISPADSSTNYNQKFKDKATLTVDKSSTTAYMQLSRPTFEDSAVYYCAREEVRRRRDMDFWGQGTSVTVSSAKTTPPC
VL: RKLDIVITQDELSNPVTSGESVSISCRSRQSLLYKNGKTYLNWFLQRPGQSPQLLIYLMSIRASGVSDRFSGNGSGTDFTLEISRVRAEDVGVYYCQQLVEYPYTFGGGTKLEIKRADAAPT
modifications: BINDING (28)..(37) Complementary Determining Region; BINDING (27)..(42) Complementary Determining Region
For the molecule B3, the “reactivity to PAb-421 (FIG. 7)” value in assay [2] is “specific reactivity”. Moreover, the “reactivity to mouse antibodies other than PAb-421” value in assay [3] is given as “No reactivity”. Besides, in assay [4], the “binding … in band-shift assay” value is recorded as “bound to the dG oligomer better than they did the others”. For the same molecule, in assay [5], the “change of binding to single-stranded DNA after gamma-irradiation of the DNA” value was “markedly enhanced” and the “reactivity to DNA (FIG. 7)” value is “specific reactivity”.

Values taken from US20060030524A1, “Treatment of systemic lupus erythematosus by down-regulating the autoimmune response to autoantigens” (Yeda Research and Development Co. Ltd., priority 1998, published 2006).
